Test results as given in the Immune Epitope Database (IEDB).

What was measured:
[1] = target: HLA-B*18:01; assay: IEDB peptide-MHC binding, purified MHC/direct/fluorescence; filed as Kd, often an IC50 or EC50 that approximates it; ≥ and ≤ were set here for values at or beyond the usual limits of such assays; conditions: source organism: dengue virus type 1
[2] = target: HLA-B*44:02; assay: IEDB peptide-MHC binding, purified MHC/competitive/radioactivity; filed as Kd, often an IC50 or EC50 that approximates it; ≥ and ≤ were set here for values at or beyond the usual limits of such assays
[3] = target: HLA-B*44:03; assay: as above
[4] = target: HLA-B*07:02; assay: as above
[5] = target: HLA-B*35:01; assay: as above
[6] = target: HLA-B*51:01; assay: as above
[7] = target: HLA-B*53:01; assay: as above
[8] = target: HLA-B*54:01; assay: as above
[9] = target: HLA-B*08:01; assay: as above
[10] = target: HLA-B*15:01; assay: as above
[11] = target: HLA-A*02:02; assay: as above; conditions: source organism: Lassa virus Josiah
[12] = target: HLA-A*02:03; assay: as above; conditions: source organism: Lassa virus Josiah
[13] = target: HLA-A*02:06; assay: as above; conditions: source organism: Lassa virus Josiah
[14] = target: HLA-A*68:02; assay: as above
[15] = target: HLA-B*18:01; assay: as above; conditions: source organism: SARS coronavirus Tor2
[16] = target: HLA-B*40:01; assay: as above; conditions: source organism: SARS coronavirus Tor2
[17] = target: HLA-B*40:02; assay: as above; conditions: source organism: SARS coronavirus Tor2
[18] = target: HLA-B*45:01; assay: as above; conditions: source organism: SARS coronavirus Tor2
[19] = source organism: Dengue virus 1 Brazil/97-11/1997
[20] = source organism: Vaccinia virus WR
[21] = source organism: SARS coronavirus Tor2

MEVQLIRQM
Kd [1]: 1.5 nM
Kd [2, 19]: 17.3 nM
Kd [3, 19]: 18.9 nM

MPEKRNVVVV
Kd [4, 20]: 194 nM
Kd [5, 20]: 4350 nM
Kd [6, 20]: 2090 nM
Kd [7, 20]: 13200 nM
Kd [8, 20]: 40.6 nM

MPILTLTRAL
Kd [4, 21]: 9.46 nM
Kd [5, 21]: 13.7 nM
Kd [6, 21]: 8.24 nM
Kd [7, 21]: 202 nM
Kd [8, 21]: 85.4 nM

MPVETLFGSY
Kd [4, 20]: ≥ 44000 nM
Kd [5, 20]: 3.28 nM
Kd [6, 20]: ≥ 69600 nM
Kd [7, 20]: 2.28 nM
Kd [8, 20]: 106 nM

MQRKHGGML
Kd [9, 19]: 170 nM
Kd [10, 19]: 100 nM

MSIISFFPF
Kd [9, 20]: 857 nM
Kd [10, 20]: 0.168 nM

NLYDHALMSI
Kd [11]: 1.75 nM
Kd [12]: 0.543 nM
Kd [13]: 23.1 nM
Kd ([14]; source organism: Lassa virus Josiah): 75 nM

NRMEIFLVL
Kd ([9]; source organism: Vaccinia virus Copenhagen): 4.85 nM

NSTHEMYWV
Kd ([14]; source organism: Dengue virus 2 Jamaica/1409/1983): 92.1 nM

PPFTQHLLNI
Kd [4, 20]: ≥ 69600 nM
Kd [5, 20]: ≥ 69900 nM
Kd [6, 20]: 12500 nM
Kd [7, 20]: ≥ 20900 nM
Kd [8, 20]: ≥ 69900 nM

QEAYEQAVA
Kd [15]: 3870 nM
Kd [16]: ≥ 26000 nM
Kd [17]: 1200 nM
Kd [2, 21]: 17300 nM
Kd [3, 21]: 6860 nM
Kd [18]: 14.9 nM

QELGHEDLM
Kd [15]: ≥ 31800 nM
Kd [16]: 5540 nM
Kd [17]: 3000 nM
Kd [2, 21]: 15400 nM
Kd [3, 21]: 3710 nM
Kd [18]: 2740 nM

REFLTRNPAW
Kd [15]: ≥ 33400 nM
Kd [16]: 50.2 nM
Kd [17]: 23.5 nM
Kd [2, 21]: 4.02 nM
Kd [3, 21]: 5.83 nM
Kd [18]: 569 nM
